For 57 variants, self-cleavage results are on record in the RNAGym collection of RNA variant scans (doi:10.7554/elife.80360).

First the molecules themselves.
B1: Hammerhead Ribozyme (parent)
chain: ACCGGAUGUGCUUUCCGGUCUGAUGAGUCCGUGAGGACGAAACAG

Variants of B1 are the subject of this series. As to the kind of experiment: self-cleavage, relative activity (ratio to wild type); higher = more cleavage; co-transcriptional.
Turning to ACCGGAUGUGCUUUCAGGUCUGAUGAGUUCGUGAGGACGAAACAG [C16A C29U], the self-cleavage turned out to be 1.06. As for ACCGGAUGUGCUUUCCGGUGUGAUGAGUCGGUGAGGACGAAACAG [C20G C30G], the figure is 0.37; as for ACCGGAUGUACUUUCCGGUCUGAUGCGUCCGUGAGGACGAAACAG [G10A A26C], 0.666.

For the variant ACAGGAUGUGCUUUCCGGGCUGAUGAGUCCGUGAGGACGAAACAG [C3A U19G], the self-cleavage came to 0.296.

For the variant ACCGGAUUUGCUUUCCGGUCUGAAGAGUCCGUGAGGACGAAACAG [G8U U24A], the self-cleavage is 1.24.

Take ACCGGAUGUGCUUUCCGGUGUGAUGUGUCCGUGAGGACGAAACAG [C20G A26U]: the self-cleavage was 0.29.

For the variant ACCGGAUGUGCUUUCCGGUCUGAUGAGUCCGUGAGGAGAAAACAG [C38G G39A], the self-cleavage turned out to be 0.285. As to ACGGGAUGUGCUUUCCGGUCUGCUGAGUCCGUGAGGACGAAACAG [C3G A23C], the self-cleavage came out at 0.328. As for ACCGGAUGUGCUUUCCGGUCUGAUGAGUCCGUGACGACGAAAGAG [G35C C43G], the self-cleavage was 0.325. In the case of ACCGGAUGUGAUUUCCGGUCUGAUGAGUCCCUGAGGACGAAACAG [C11A G31C], the self-cleavage was 1.12. With ACCGGAUGUGCUUACCGGUCUGAUCAGUCCGUGAGGACGAAACAG [U14A G25C], the self-cleavage was found to be 0.288. ACCGGAUGUGCUUUCCGGUCUGAUGGGUCCAUGAGGACGAAACAG [A26G G31A]: the self-cleavage is 0.327. Consider ACCGGAUGUACCUUCCGGUCUGAUGAGUCCGUGAGGACGAAACAG [G10A U12C], for which the self-cleavage was determined as 1.38. For the variant ACCGUAUGUGCUUUUCGGUCUGAUGAGUCCGUGAGGACGAAACAG [G5U C15U], the self-cleavage was 1.17. Regarding ACCGGAUGCGCUUUCCGGUCUGAUGAGUCCAUGAGGACGAAACAG [U9C G31A], the self-cleavage is 1.39.

ACCGGAUGUGCUUUCCGGUCUGAUGAGUCCUUGAGGAAGAAACAG [G31U C38A]: the self-cleavage is 0.776. The figure for GCCGGAUGUGCUUUCCGGUGUGAUGAGUCCGUGAGGACGAAACAG [A1G C20G] is 0.358. Turning to ACCGGAUGUGCUUUCCGGUCUGAUGCGUCCGUGAGGACGAAACAG [A26C], the self-cleavage is 0.7. CCCGGAUGUGCGUUCCGGUCUGAUGAGUCCGUGAGGACGAAACAG [A1C U12G]: the self-cleavage is 0.325.

In the case of ACCGGGUGUGCUUUCCGGUCUGAUGAGUCCGUGAGGACGAAACAC [A6G G45C], the self-cleavage came out at 0.433. On to ACCGGAUGUGCUUUCCGGUCUCAUGAGUCCGUGAGGACCAAACAG [G22C G39C], for which the self-cleavage amounted to 0.375.

For the variant ACCGGAUGUGCUUUCCGGUCUGAUGAGUCCGUGAAGACGGAACAG [G35A A40G], the self-cleavage came out at 0.37.

Take ACCGUAUGUGCUUUCCGGUCUGAUGAGUCCGUGAGGACGAAAGAG [G5U C43G]: the self-cleavage amounted to 0.335. On to ACUCGAUGUGCUUUCCGGUCUGAUGAGUCCGUGAGGACGAAACAG [C3U G4C], for which the self-cleavage was 0.3. Take ACCGGAUGUGCUUUCCCGUCUGAUGAGUCCGUGAGAACGAAACAG [G17C G36A]: the self-cleavage is 0.361. In the case of ACCGGAUGUGCUUUCCGGUCUGAUUAGUCCGUGAUGACGAAACAG [G25U G35U], the self-cleavage turned out to be 0.326.

AACGGAUGUGCUUUCCGGUCUGAUGAGUCCGAGAGGACGAAACAG [C2A U32A]: the self-cleavage is 0.784. Take ACCGGAUGUGUUUUCCGGUCCGAUGAGUCCGUGAGGACGAAACAG [C11U U21C]: the self-cleavage was 0.561. As for ACCGGAUGUGCUUUCUGGUCUGAUGAGUCCGGGAGGACGAAACAG [C16U U32G], the figure is 1. Turning to ACCGGAUGUGCCUUCCGGUCUGAUGAGUCCGUGAGGAGGAAACAG [U12C C38G], the self-cleavage worked out at 0.663. ACCGGAUGUGCUUUCCGGUGUGAUGAGUCCGUGAGGUCGAAACAG [C20G A37U]: the self-cleavage stood at 0.272. As to ACCGGCUGUGCUUUCCGGUCUGGUGAGUCCGUGAGGACGAAACAG [A6C A23G], the self-cleavage was determined as 0.306. As for ACCGGAUCUGCUUUCCAGUCUGAUGAGUCCGUGAGGACGAAACAG [G8C G17A], the self-cleavage stood at 0.663. On to ACCGGAUGUGCUUUCCGGUCUGAUCAGUCCGUGAGGACGAAACAG [G25C], for which the self-cleavage stood at 0.324. Turning to ACCGGAUAUGCUUUCCGGUCUGAUGAGUCCGUGAGCACGAAACAG [G8A G36C], the self-cleavage was 0.508.

ACCGGACGUGCUUUCCGGUCUGAUGAGUCCGUGAAGACGAAACAG [U7C G35A]: the self-cleavage was 0.732. Consider ACCGUAUGUGCUUUCCCGUCUGAUGAGUCCGUGAGGACGAAACAG [G5U G17C], for which the self-cleavage is 0.309. With ACCGAAGGUGCUUUCCGGUCUGAUGAGUCCGUGAGGACGAAACAG [G5A U7G], the self-cleavage came out at 1.56.

Regarding ACCGGAUGUGCUUUCCGGUCUGAUGAGUCACUGAGGACGAAACAG [C30A G31C], the self-cleavage is 0.872.

Consider ACCGGAAGUGCUUUCCGGUCUGAUUAGUCCGUGAGGACGAAACAG [U7A G25U], for which the self-cleavage was 0.281. Take ACCGAAUGUGCUUUCCGGUCUGAUGAGUCCUUGAGGACGAAACAG [G5A G31U]: the self-cleavage is 1.61.

Consider CCCGGAUGUGCUUUCCGGUCUGAUGACUCCGUGAGGACGAAACAG [A1C G27C], for which the self-cleavage is 0.357. The figure for ACCGGAUGUGCUUUCCGGUAUGAUGAGUCCGUAAGGACGAAACAG [C20A G33A] is 0.651. As to ACCGGAUUUGCUUUCCGGUCUGAUGAGUCCGUGAGGACGAAACAU [G8U G45U], the self-cleavage came out at 0.826. As for ACCGGAUGUGCUUUCGGGUCUGAUGAGUCCGUGAGGACGAAACAA [C16G G45A], the self-cleavage is 0.533. AACGGAUGUGCUUUCCGGUCUGAUGAGGCCGUGAGGACGAAACAG [C2A U28G]: the self-cleavage is 0.308. For ACCUGAUGUGCUUUCCGGUCUGAUGAUUCCGUGAGGACGAAACAG [G4U G27U], the self-cleavage worked out at 0.294. For the variant ACCGGAUGUGCUUUCCGGUCUGAUGAGUCCGUGAGGACGAAAUGG [C43U A44G], the self-cleavage came out at 0.586. Take ACCGGAUGUGCUUUCCGGUCUGAUAAGUCCUUGAGGACGAAACAG [G25A G31U]: the self-cleavage is 0.416. As to ACCGAAUGUGCUUUCCGGUCUGAUGAGUCCGUGAGCACGAAACAG [G5A G36C], the self-cleavage was found to be 0.384.

Turning to ACCGGAUGUGCUUUCCCGUCUGAUGAGUCCGUGAUGACGAAACAG [G17C G35U], the self-cleavage stood at 0.371.

Turning to ACCGGAUGUGCUUUCCGGUGUGAGGAGUCCGUGAGGACGAAACAG [C20G U24G], the self-cleavage stood at 0.353. UCCGGAUGUGCUUUCCGGUCAGAUGAGUCCGUGAGGACGAAACAG [A1U U21A]: the self-cleavage came to 0.614. With ACCGGAUGUGCUUUCCGGUCUGAGGUGUCCGUGAGGACGAAACAG [U24G A26U], the self-cleavage is 0.718.

With ACAGGUUGUGCUUUCCGGUCUGAUGAGUCCGUGAGGACGAAACAG [C3A A6U], the self-cleavage came to 0.371. As for ACCGGAUGUGCAUUCGGGUCUGAUGAGUCCGUGAGGACGAAACAG [U12A C16G], the figure is 0.764; as for ACCGGAAGUGCUUUCCGGUCUGAUGAGCCCGUGAGGACGAAACAG [U7A U28C], 1.26.
